Experimental data published in US20250282887A1 (Amgen, published 2025).

Tests used:
[1] = biological target: T1, human MAGEA3 (human, UniProt P43357 1-314); assay: IHC, FFPE CHO cells transfected with human MAGEA3
T1 construct: whole, on cells; FFPE cell pellets
Description: (§1) FFPE samples were sectioned at 4 μm and mounted on positive charged glass slides. After mounting, paraffin sections were air-dried at room temperature. FFPE TMA samples were received as freshly sectioned and mounted on glass slides. The fully automated IHC assay was performed on a Discovery Ultra Stainer (Ventana Medical Systems, Tucson, AZ) using Ventana Anti-Rabbit HQ (cat #760-4815), Ventana Anti-HQ HRP (cat #760-4820), and Ventana Antibody Diluent with Casein (cat #760-219) (Ventana Medical Systems, Tucson, AZ). The slides were baked on the Discovery Ultra Stainer at 60° C. for 8 minutes, de-paraffinized with Ventana Discovery wash (cat #950-510) for 3 cycles (8 minutes each) at 69° C., and underwent cell conditioning (target retrieval) at 95° C. for 16 minutes (for cell arrays) or 32 minutes (tissues or TMAs) in CC1 buffer (cat #950-500). Following this, slides were incubated with Background Sniper (cat #BS966M, Biocare Medical, Pacheco, CA) in a Ventana Option Prep kit (cat #771-751) for 28 minutes, incubated with CM inhibitor (a part of the Ventana DAB kit cat #760-159) for 12 minutes, and incubated for 1 h at RT with MAGE-B2 antibody diluted with Ventana diluent with Casein in a Ventana Prep kit (cat #770-001) (working concentration at 0.1 μg/ml for cell pellet, or 1-5 ug/ml for tissues) or with a matched concentration of isotype control Rabbit IgG1 antibody. Following this, slides were incubated with the Ventana Anti-Rabbit HQ (cat #760-4815) for 28 minutes at RT, Ventana Anti-HQ HRP (cat #760-4820) for 28 minutes at RT, and signals detected with Ventana DAB chromogen kit (cat #760-159) for 5 minutes at RT. Slides were counterstained with Ventana Hematoxylin II (cat #5266726001) for 8 minutes and Ventana Bluing reagent (cat #526676900) for 4 minutes. Slides were coverslipped and digitized using an Aperio AT2 scanner (Leica Biosystems Inc, Buffalo Grove, IL).

[2] = biological target: T2, human MAGEA5 (human, UniProt P43359 1-124); assay: IHC, FFPE CHO cells transfected with human MAGEA5
T2 construct: whole, on cells; FFPE cell pellets
T2 sequence (looked up): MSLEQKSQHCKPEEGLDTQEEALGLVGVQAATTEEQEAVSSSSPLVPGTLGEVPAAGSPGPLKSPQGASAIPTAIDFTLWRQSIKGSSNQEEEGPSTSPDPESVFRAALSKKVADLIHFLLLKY
Description: (§2) Negative control cells included parental Chinese hamster ovary (CHO) cells, CHO cells stably transfected with mCherry Vector Control (minus Myc/DDK tags), CHO cells stably transfected with mCherry-human DCAF4L2 (plus Myc/DDK tags). The cross-reactivity control cells included CHO cells transfected with mCherry Vector Control (plus Myc/DDK tags) with one of the human MAGE-B or MAGE-A family members (MAGEA1, MAGEA2, MAGEA3, MAGEA4, MAGEA5, MAGEA6, MAGEA8, MAGEA9, MAGEA11, MAGEA12, MAGEB1, MAGEB3, MAGEB4, MAGEB5, MAGEB6, MAGEB10, MAGEB16, MAGEB17, MAGEB18). Positive control cell lines included CHO cells transfected with mCherry Vector (plus Myc/DDK tags) with human MAGE-B2 or CHO cells transfected with mCherry Vector (open reading frame (ORF); minus Myc/DDK tags) with human MAGEB2, and thirteen human cancer cell lines with known endogenous RNA expression level of MAGEB2 (U266B1, T98G, KMM-1, U20S, CFPAC-1, SCaBER, UACC-257, CFPAC-1, VMRC-LCD, NCI-H1703, UM-UC-3, NCI-H1395, NCIH82).
as §1, with “antibody.” for “antibody. Following this, slides were incubated with the Ventana Anti-Rabbit HQ (cat #760-4815) for 28 minutes at RT, Ventana Anti-HQ HRP (cat #760-4820) for 28 minutes at RT, and signals detected with Ventana DAB chromogen kit (cat #760-159) for 5 minutes at RT. Slides were counterstained with Ventana Hematoxylin II (cat #5266726001) for 8 minutes and Ventana Bluing reagent (cat #526676900) for 4 minutes. Slides were coverslipped and digitized using an Aperio AT2 scanner (Leica Biosystems Inc, Buffalo Grove, IL).”

[3] = biological target: T3, human MAGEA4 (human, UniProt P43358 1-317); assay: IHC, FFPE CHO cells transfected with human MAGEA4
T3 construct: whole, on cells; Transfected into CHO cells with Myc/DDK tags
T3 sequence (looked up): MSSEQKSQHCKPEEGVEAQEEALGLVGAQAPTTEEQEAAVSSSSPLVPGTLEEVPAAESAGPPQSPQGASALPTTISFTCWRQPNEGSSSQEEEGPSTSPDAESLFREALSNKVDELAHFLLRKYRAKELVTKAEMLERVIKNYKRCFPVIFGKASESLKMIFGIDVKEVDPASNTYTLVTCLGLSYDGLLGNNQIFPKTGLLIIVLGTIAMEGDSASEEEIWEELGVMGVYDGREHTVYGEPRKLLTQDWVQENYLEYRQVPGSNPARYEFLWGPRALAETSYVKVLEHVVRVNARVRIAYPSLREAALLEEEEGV
Description: as §2
as §1, with “antibody.” for “antibody. Following this, slides were incubated with the Ventana Anti-Rabbit HQ (cat #760-4815) for 28 minutes at RT, Ventana Anti-HQ HRP (cat #760-4820) for 28 minutes at RT, and signals detected with Ventana DAB chromogen kit (cat #760-159) for 5 minutes at RT. Slides were counterstained with Ventana Hematoxylin II (cat #5266726001) for 8 minutes and Ventana Bluing reagent (cat #526676900) for 4 minutes. Slides were coverslipped and digitized using an Aperio AT2 scanner (Leica Biosystems Inc, Buffalo Grove, IL).”

Measured: binding result

T1 sequence (P43357 whole entry): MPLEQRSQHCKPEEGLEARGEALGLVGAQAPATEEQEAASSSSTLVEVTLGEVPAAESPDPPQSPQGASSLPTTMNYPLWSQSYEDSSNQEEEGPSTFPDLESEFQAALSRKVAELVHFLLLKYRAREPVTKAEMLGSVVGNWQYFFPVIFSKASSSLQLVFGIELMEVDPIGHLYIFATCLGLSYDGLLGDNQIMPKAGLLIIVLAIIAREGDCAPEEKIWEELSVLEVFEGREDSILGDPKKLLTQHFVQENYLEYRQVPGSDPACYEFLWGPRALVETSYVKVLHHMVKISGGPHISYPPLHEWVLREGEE

B1: 1I14 (antibody, V domains shown)
VH: QSVEESGGRLVTPGTPLTLTCTISGFSLSSYAMSWVRQAPGKGLEWIGSIGGGGSAVYASWAKGRFTISKTSTTVDLRITSPTTEDTAMYFCGRGFYSIDLWGPGTLVTVSS
VL: DVVMTQTPASVEATVGGTVTIKCQSSQSVYDNNALAWYQQNAGQRPRLLIYGASTLASGVPSRFSASGSGTEFTLTISDLECADAATYYCQCTYYVSSYQNDFGGGTEVVVKG
notes: also called MAGE-B2 (1i14)
no binding (tested: 0.1 µg/ml): all assays above

B2: 1C3 (antibody, V domains shown)
VH: QSLEESGGGLVQPEGSLTLTCTAFGVTLTNYYICWVRQAPGKGLEWVGCIDNANGRTYYASWAKGRFTISKTSSTTGTLQMTSLTAADTATYFCARSLATPLWGPGTLVTVSS
VL: DIVMTQTPSSVEAAVGGTVTIKCQASQNISSYLAWYQQKPGQPPKLLIYRASTLASGVPSRFKGSGSGTQFTLTISDLECADAATYYCQSYDDSRSSNFFYAFGGGTEVVVKG
notes: also called MAGE-B2 (IC3); anti-MAGEB2 antibody 1C3
no binding (tested: 0.1 µg/ml): all assays above

B3: 4G17 (antibody, IgG1, V domains shown)
VH: QSLEESGGGLVQPEGSLTLTCTASGVTLSNYYICWVRQAPGKGLEWIGCIDNVNGRTYYASWAKGRFTISKTSSTTGTLQMTSLTAADTATYFCARSLATPLWGPGTLVTVSS
VL: DIVMTQTPASVEAAVGGTVTIKCQASQNIDSYLAWYQQKPGQPPKLLIYRASTLASGVPSRFKGSGSGTEFTLTISDLECADAATYYCQSYDDSRSSSFFYGFGGGTEVVVK
notes: Rabbit monoclonal IgG1; Tested as supernatant and as small batch purified antibody; also called MAGE-B2 (4G17); anti-MAGEB2 antibody 4G17
no binding (tested: 0.1 µg/ml): all assays above

B4: 1J15 (antibody, IgG1, V domains shown)
VH: QSLEESGGGLVQPEGSLTLTCTAFGFTLNNYYICWVRQAPGKGLEWIACIDNANGRTYYASWAKGRFTISKTSSTTVTLQMTSLTAADTATYFCARSLSTPLWGPGTLVTVSS
VL: DIVMTQTPASVEAAVGGTVTIKCQASQSISSYLSWYQQKPGQPPKLLIYRASTLASGVPSRFRGSGSGTQFTLTISDLECADAATYYCQSYDDSSDNNFFYGFGGGTEVVVR
notes: Rabbit monoclonal IgG1; Tested as supernatant and as small batch purified antibody; also called MAGE-B2 (IJ15); anti-MAGEB2 antibody 1J15
no binding (tested: 0.1 µg/ml): all assays above
